Here are results for 38 sequences from the supplement of paper PMC7877785.

A short description of this data set: self-splicing fitness, log relative to wild type (ln ratio); higher = more splicing; Tetrahymena group I intron in knt gene, E. coli kanamycin selection, DiMSum; sequences stand for … in CUCUCU…GGAGGGAAAAGUUAUCAGGCAUGCACCUGGUAGCUAGUCUUUAAACCAAUAGAUUGCAUCGGUUUAAAAGGCAAGACCGUCAAAUUGCGGGAAAGGGGUCAACAGCCGUUCAGUACCAAGUCUCAGGGGAAACUUUGAGAUGGCCUUGCAAAGGGUAUGGUAAUAAGCUGACGGACAUGGUCCUAACCACGCAGCCAAGUCCUAAGUCAACAGAUCUUCUGUUGAUAUGGAUGCAGUUCACAGACUAAAUGUCGGUCGGGGAAGAUGUAUUCUUCUCAUAAGAUAUAGUCGGACCUCUCCUUAAUGGGAGCUAGCGGAUGAAGUGAUGCAACACUGGAGCCGCUGGGAACUAAUUUGUAUGCGAAAGUAUAUUGAUUAGUUUUGGAGUACUCGUGGUCG
The procedure, abridged:
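Pooled colonies went to amplicon sequencing on an Illumina HiSeq 2500 after six replicate transformations. The plates were LB agar with 100 μg/mL carbenicillin, 50 μM IPTG and 0.2% rhamnose, with or without 25 μg/mL kanamycin, incubated overnight at 37°C or 30°C. The E. coli BL21(DE3) library had all eight P1ex-region intron nucleotides randomised, the intron placed in the knt kanamycin-resistance gene on pET-22b(+). DiMSum fitness is the error-weighted combination of replicate fold changes, kanamycin against none, normalised to wild type.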

± gives the uncertainty stated by the source.

Consider GUCUAGCAAUAUUACGCUCG, for which the “self-splicing fitness (ln)” value is -0.688 ± 0.23 (30 °C) and -0.634 ± 0.27 (37 °C).
For GUCUAGCAAUAUUACGCUGU, in that order: -0.966 ± 0.09 and -0.224 ± 0.094.
On to GUCUAGCAAUAUUACGGCCG, for which the “self-splicing fitness (ln)” value (37 °C) is -1.78 ± 0.35.
For GUCUAGCAAUAUUACGGCGC, the “self-splicing fitness (ln)” value is -0.167 ± 0.1 (30 °C) and 0.985 ± 0.12 (37 °C).
For GUCUAGCAAUAUUACGGCUC, in that order: -0.737 ± 0.086 and 0.57 ± 0.12.
For GUCUAGCAAUAUUACGGUCG, in that order: -1.06 ± 0.089 and -0.996 ± 0.11.
For GUCUAGCAAUAUUACGGUGA, in that order: -2.81 ± 0.25 and -0.385 ± 0.21.
As to GUCUAGCAAUAUUACGUCGC, the “self-splicing fitness (ln)” value was -0.459 ± 0.2 (30 °C) and 0.215 ± 0.19 (37 °C).
For GUCUAGCAAUAUUACGUGCU, in that order: -3.08 ± 0.23 and -1.87 ± 0.39.
Turning to GUCUAGCAAUAUUACGUUCC, the “self-splicing fitness (ln)” value is -1.14 ± 0.16 (30 °C) and -0.649 ± 0.2 (37 °C).
Consider GUCUAGCAAUAUUACGUUUG, for which the “self-splicing fitness (ln)” value reads like this: (30 °C) -2.11 ± 0.088; (37 °C) -1.62 ± 0.11.
For GUGAAGCAAUAUUACGAACU, in that order: -2.15 ± 0.1 and -0.516 ± 0.095.
For GUGAAGCAAUAUUACGACCC, in that order: -1.04 ± 0.43 and 0.469 ± 0.33.
For GUGAAGCAAUAUUACGACCG, in that order: -1.63 ± 0.23 and 0.706 ± 0.28.
In the case of GUGAAGCAAUAUUACGCCAA, the “self-splicing fitness (ln)” value was -0.702 ± 0.13 (30 °C) and -1.88 ± 0.16 (37 °C).
For GUGAAGCAAUAUUACGCCGU, in that order: -1.23 ± 0.13 and -0.0879 ± 0.21.
GUGAAGCAAUAUUACGCGAC: the “self-splicing fitness (ln)” value runs as follows: (30 °C) -0.927 ± 0.21; (37 °C) -0.922 ± 0.26.
For GUGAAGCAAUAUUACGGACG, in that order: 0.234 ± 0.081 and 0.144 ± 0.092.
Regarding GUGAAGCAAUAUUACGGACU, the “self-splicing fitness (ln)” value reads like this: (30 °C) -0.0214 ± 0.15; (37 °C) -0.194 ± 0.19.
For GUGAAGCAAUAUUACGGGAA, in that order: -2.11 ± 0.12 and -0.793 ± 0.11.
For GUGAAGCAAUAUUACGGGCA, in that order: -0.763 ± 0.064 and -0.106 ± 0.083.
For GUGAAGCAAUAUUACGGUGG, in that order: -1.97 ± 0.098 and -1.78 ± 0.16.
Consider GUGAAGCAAUAUUACGGUGU, for which the “self-splicing fitness (ln)” value runs as follows: (30 °C) -1.8 ± 0.063; (37 °C) -0.777 ± 0.082.
For GUGAAGCAAUAUUACGGUUU, in that order: -2.86 ± 0.084 and -0.906 ± 0.11.
For GUGAAGCAAUAUUACGUACC, the “self-splicing fitness (ln)” value (30 °C) was -1.07 ± 0.2.
For GUGAAGCAAUAUUACGUAGC, the “self-splicing fitness (ln)” value was -3.31 ± 0.15 (30 °C) and -1.84 ± 0.18 (37 °C).
For GUGAAGCAAUAUUACGUCGA, in that order: -0.469 ± 0.077 and 0.751 ± 0.12.
On to GUGAAGCAAUAUUACGUCUC, for which the “self-splicing fitness (ln)” value reads like this: (30 °C) -0.941 ± 0.11; (37 °C) -0.553 ± 0.12.
For GUGAAGCAAUAUUACGUGUA, in that order: -1.11 ± 0.069 and -0.878 ± 0.087.
For GUGAAGCAAUAUUACGUUCC, in that order: -1.67 ± 0.17 and -1.16 ± 0.2.
For GUGAAGCAAUAUUACGUUUC, in that order: -3.08 ± 0.17 and -2.53 ± 0.34.
For the sequence GUGCAGCAAUAUUACGAAGG, the “self-splicing fitness (ln)” value by setting is: (30 °C) -2.59 ± 0.19; (37 °C) -1.53 ± 0.23.
For GUGCAGCAAUAUUACGACGU, in that order: -0.779 ± 0.11 and 0.0794 ± 0.13.
For GUGCAGCAAUAUUACGAGCA, in that order: -3.43 ± 0.31 and -1.18 ± 0.15.
For the sequence GUGCAGCAAUAUUACGAUAC, the “self-splicing fitness (ln)” value (30 °C) was -1.58 ± 0.2 and the “self-splicing fitness (ln)” value (37 °C) was -0.0479 ± 0.17.
With GUGCAGCAAUAUUACGCAGU, the “self-splicing fitness (ln)” value was -3.58 ± 0.27 (30 °C) and -2.4 ± 0.28 (37 °C).
For GUGCAGCAAUAUUACGCAUA, in that order: -1.7 ± 0.18 and -0.534 ± 0.14.
For GUGCAGCAAUAUUACGCUUA, in that order: -0.938 ± 0.092 and 0.781 ± 0.15.
